{
  "source": "paper PMC6404975",
  "binders": {"B1": {"name": "Insulin-End (IGA3) (structured_DNA)", "DNA": "AAAAGGTGGTGGGGGGGGTTGGTAGGGTGTCTTCT", "modifications": "5' thiol-C6 (immobilised on gold); 3' methylene blue"}},
  "key": {"glucagon": {"molecular_target": "glucagon (UniProt P01275 53-81)", "sequence (P01275 53-81)": "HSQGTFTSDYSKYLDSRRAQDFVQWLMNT", "experiment": "electrochemical aptamer-based sensor"}, "[1]": {"molecular_target": "insulin (bovine pancreas) (Bos taurus, UniProt P01317;P01317 25-54;85-105)", "sequence (P01317 25-54, chain 1 of 2)": "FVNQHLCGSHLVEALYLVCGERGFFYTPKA", "sequence (P01317 85-105, chain 2 of 2)": "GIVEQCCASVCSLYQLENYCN", "experiment": "electrochemical aptamer-based sensor"}},
  "data": [
    {"binder": "B1", "values": [
      {"measurement": "binding result", "setting": "glucagon", "value": "no binding"},
      {"measurement": "Kd", "setting": "[1]", "value": "240 ± 65", "unit": "nM"}
    ]}
  ]
}
